Source: the supplement of paper PMC9170038

System: MS2 coat protein
Experiment: apparent KD of MS2 coat protein; designed switch direction (-1 OFF switch, 1 ON switch): 1; higher = weaker reporter binding
Summary of the method: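 Each step of the titration lasted 0.8–1.5 h at the lowest concentration and 10–20 min at the highest. The protein, SNAP-549-labelled MS2 coat protein, went from 0.7 or 1.5 nM doubling to 3 µM over RNA switches transcribed on Illumina chips by stalled E. coli RNA polymerase. Normalised cluster fluorescence was curve-fitted, and the per-design median over clusters is given as apparent KD.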

[1] = input ligand: microRNA oligo, concentration not stated
[2] = Eterna round: R95, input ligand: microRNA oligo, concentration not stated
[3] = Eterna round: R95, input ligand: FMN 200 uM
[4] = Eterna round: R95, input ligand: none

Row | Sequence | apparent KD of MS2 coat protein (input ligand: FMN 200 uM) [nM] | apparent KD of MS2 coat protein [1] [nM] | apparent KD of MS2 coat protein (input ligand: none) [nM] | apparent KD of MS2 coat protein [2] [nM] | apparent KD of MS2 coat protein [3] [nM] | apparent KD of MS2 coat protein [4] [nM]
1 | GUAAAGAAUUAAGGAUAUUGAAUACAUAUGUUUAACAUGAGGAUCACCCAUGUGGGUUGCGGUAUCGAGAAGGUAAAAUAAAAG [Mat - Same State NG 2 - JL mod - D7] (Eterna round: R96, puzzle: Same State NG 2) | 137 | 105 | 124 |  |  | 
2 | UGUUGUAUUACAGGAUAUCUAUUAGUUUUAUUUAGAGAAGGGUAUUCACAUGAGGAUCACCCAUGUAUAUACGAGGAAGUUGUG [JMF's solution 14] (Eterna round: R96, puzzle: Same State NG 1) |  | 42.2 |  |  |  | 
3 | GCUACCAUAGAAGCCAACAUGAGGAUCACCCAUGUAUGUUGGUAGGAUAUCGAUUGCAAAGCGAUCGAGAAGGGCUAAGGUAGC [Mat - Same State NG 3 - JL Mod - D83] (Eterna round: R96, puzzle: Same State NG 3) | 164 | 130 | 139 |  |  | 
4 | UAGGAACAUGAGGAUCACCCAUGUACCUCAUAUGGAGAAACACAGGAUAUACUUAGCGAAAGAGAGUAGAAGGGUGAAGAGAGG [Default title] (Eterna round: R96, puzzle: Same State NG 3) | 19.4 | 30.8 | 32.6 |  |  | 
5 | GGAAAGAGGUAAGGAUAUGCAUGGCGGAGACAUGAGGAUCACCCAUGUUGGAGACGAAAUCUAGGGUAGAAGGUACAAGGAAGG [AK SSNG2-V2-11] (Eterna round: R96, puzzle: Same State NG 2) | 133 | 44.6 | 128 |  |  | 
6 | UAAUGUUAGCGAGGAUAUCGUUUAUUGAAGUUACGAGAAGGCGCUCUUCUUACAUGAGGAUCACCCAUGUCUGUUUUGCAUGAU [JR_SSNG1_Sub068] (Eterna round: R96, puzzle: Same State NG 1) |  | 50 |  |  |  | 
7 | UUUGCAUGACGAGGAUAUCAUUUAUUUCUUGAUUGAGAAGGCGUUCUUUUUAAUACCUAACAUGAGGAUCACCCAUGUGACAGU [JR_SSNG1_Sub047] (Eterna round: R96, puzzle: Same State NG 1) |  | 13.1 |  |  |  | 
8 | GAGAGAGGGUGAGGAUAUGCAGUAAUAAUGAUAGCAGAAGGCACAGACAUGAGGAUCACCCAUGUGGGAAUAAUCCAGAGAGAG [Parity 2 - Jieux - Same State NG 1] (Eterna round: R96, puzzle: Same State NG 1) | 291 | 177 | 305 |  |  | 
9 | GGAGGACAUGAGGAUCACCCAUGUGGAUGGGCGCUAGGAUAUGCGAGAGGAUGGAGAGAAGCAGAAGGAGUGGGUU [JR_SS1_Sub042] (puzzle: Same State 1) |  |  |  | 79.6 |  | 
10 | UAGGAGAGUAGAACAUGAGGAUCACCCAUGUAACCUCAUGUAUAGGAUAUGUUAAGAGUAGUAGAACAGAAGGAUAAGUAGGAU [Default title] (Eterna round: R96, puzzle: Same State NG 3) | 694 | 494 | 655 |  |  | 
11 | AUGCCAAAUCAAGGAUAUGGAGCCUUAUUGGCUCCAGAAGGUGGGACAUGAGGAUCACCCAUGUGGCAGUGGUCUAAUGACCAC [Fiskers NG1ss - 31] (Eterna round: R96, puzzle: Same State NG 1) | 59.7 | 146 | 200 |  |  | 
12 | AUAUAACAUGAGGAUCACCCAUGUCUCUAAAGUUGAGGAUAUGGGCAGGUUAUAUCCGAACCAGAAGGCGAAUUAU [SS1 Teenbexe 7] (puzzle: Same State 1) |  |  |  | 46.3 | 74.5 | 102
13 | UAGACAAGCUUUAUGUUCUUCCUUUUCCUACAUGAGGAUCACCCAUGUAGUCUGUCGAUUGUGAGUGUAGUUGAGAU [JR_SHM208A_Sub025] (puzzle: Sensor for hsa-mir-208a) |  |  |  | 16 | 18.7 | 18.7
